Publication PMC8158039

Biological target: Recombinant human neonatal Fc receptor (FcRn) (human) (UniProt P55899)
Test: SPR

Sequence of UniProt P55899 (P55899 24-365, chain 1 of 2): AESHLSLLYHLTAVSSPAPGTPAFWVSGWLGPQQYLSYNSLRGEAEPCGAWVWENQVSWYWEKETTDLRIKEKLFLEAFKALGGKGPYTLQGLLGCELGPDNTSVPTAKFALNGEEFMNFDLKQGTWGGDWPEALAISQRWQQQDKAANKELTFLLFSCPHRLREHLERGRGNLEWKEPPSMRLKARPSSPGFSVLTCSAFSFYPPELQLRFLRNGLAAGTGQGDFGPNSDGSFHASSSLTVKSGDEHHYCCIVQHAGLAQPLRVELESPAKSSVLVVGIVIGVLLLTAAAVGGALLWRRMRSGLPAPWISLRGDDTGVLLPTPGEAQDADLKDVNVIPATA
Sequence of UniProt P55899 (P61769 21-119, chain 2 of 2, further chain): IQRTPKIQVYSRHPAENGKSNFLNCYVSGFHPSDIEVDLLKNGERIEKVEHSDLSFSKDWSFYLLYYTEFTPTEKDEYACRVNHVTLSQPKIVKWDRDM

Which fold of KD against adalimumab does the source give for “Etanercept (from UniProt P20333 23-257) (Fc fusion)” here?
The fold of KD against adalimumab was 4 fold.
